The values below come from patent US20240117011A1.

This assay deals with spike of variant B.1.351 v.1 on pseudovirus. The experiment in a line: cell-based or functional assay.

In turn, LY-CoV555 (antibody) registered a neutralization IC50 of more than 10 µg/mL.

In turn, CB6 (antibody) yielded a neutralization IC50 of more than 10 µg/mL.
